Source: doi:10.1101/2023.07.10.548257 (bioRxiv, 2024)
Each block holds one compound with its values, some of them ahead of it.

Tests used:
SHP2 N-SH2^T42A domain = biological target: T1, SHP2 N-SH2^T42A domain (Homo sapiens, UniProt Q06124, T42A); test: Direct fluorescence polarization binding, N-SH2 T42A; conditions: direct fluorescence polarization with fluorescent peptide
T1 construct: SHP2 SH2 domains were cloned into a His6-SUMO-SH2-Avi construct; His6-SUMO (N, cleaved yes); made in house; host or cells: E. coli C43(DE3), co-expressed with BirA
T1 sequence (Q06124 6-102 T42A limits assumed): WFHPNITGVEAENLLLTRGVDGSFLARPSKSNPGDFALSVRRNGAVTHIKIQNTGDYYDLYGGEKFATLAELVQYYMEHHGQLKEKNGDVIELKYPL
Experimental: Fluorescence polarization binding assays
SH2 domains were thawed in room temperature water and their absorbance at 280 nm was measured to determine concentration. SH2 domains were serially diluted 15 times in assay buffer (60 mM HEPES pH 7.2, 75 mM KCl, 75 mM NaCl,1 mM EDTA, 0.05% Tween-20), with a 2x starting concentrations generally in the low micromolar range. […] The […]
fluorescent peptide was diluted to 2x the desired concentration and mixed in 1:1 ratio with the different concentrations of SH2 domain (specific fluorescent peptide concentrations can be found in Table S2).
The mixture was transferred to a black 96-well plate and incubated for 15 minutes at room temperature. Parallel and perpendicular measurements were taken using the 485/30 polarization cube on the BioTek Neo2 Plate Reader. Data was analyzed and fitted to a quadratic binding equation to determine the KD for the fluorescent peptide, according to previously established methods (2, 3). […]
P-values comparing affinities for different SH2 domains were calculated using an unpaired Welch’s t-test. […]
Right before starting the plate reader assay, 30 μL SHP2 was added to each well a Supplementary Information - page 4 of 18

[1] = biological target: SHP2 N-SH2 domain, wild type (N-SH2-Avi-biotin) (UniProt Q06124); test: peptide display screen (pTyr-Var Library); conditions: N = 2 independent library transformations and screens, read off a plot
[2] = biological target: ALDH2 pTyr 502 E504K peptide FGLQA-pY-TKVKT; test: peptide display screen (pTyr-Var Library); conditions: N = 2 independent library transformations and screens; parent: est. 1.3; read off a plot
[3] = biological target: MERTK pTyr 872 I871V peptide QADVV-pY-VNTQL; test: peptide display screen (pTyr-Var Library); conditions: N = 2 independent library transformations and screens; parent: est. 1.0; read off a plot
[4] = biological target: MLH1 pTyr 293 L292P peptide THPFP-pY-LSLEI; test: peptide display screen (pTyr-Var Library); conditions: N = 2 independent library transformations and screens; parent: est. 2.9; read off a plot

enrichment (fselected / finput) ([1]; parent: est. 1.0): 1.5
Compound: MERTK pTyr 872 peptide QADVI-pY-VNTQL I871T

enrichment (fselected / finput) [2]: 1.8
Compound: Sm1; ALDH2 pTyr 502 peptide FGLQA-pY-TEVKT N-SH2: T42A; ALDH2 peptide: E504K

Further lines, the compound ahead of its results:

Compound: CC[C@H](C)[C@H](NC(=O)[C@H](Cc1ccc(OP(=O)(O)O)cc1)NC(=O)[C@H](CC(N)=O)NC(=O)[C@H](CC(C)C)NC(=O)CNC(=O)[C@H](CC(N)=O)NC(=O)[C@H](CCC(=O)O)NC(=O)CCCCCNC(=S)Nc1ccc2c(c1)C(=O)OC21c2ccc(O)cc2Oc2cc(O)ccc21)C(=O)N[C@@H](CC(=O)O)C(=O)N[C@@H](CC(C)C)C(=O)N[C@@H](CC(=O)O)C(=O)N[C@@H](CC(C)C)C(N)=O
tighter binding of N-SH2^T42A compared to N-SH2^WT (SHP2 N-SH2^T42A domain): 5 fold

Compound: MERTK pTyr 872 peptide QADVI-pY-VNTQL I871V
enrichment (fselected / finput) ([1]; parent: est. 1.0): 1

Compound: MLH1 pTyr 293 peptide THPFL-pY-LSLEI L292P
enrichment (fselected / finput) ([1]; parent: est. 2.9): 1.4

Compound: Sm1; MERTK pTyr 872 peptide QADVI-pY-VNTQL N-SH2: T42A; MERTK peptide: I871V
enrichment (fselected / finput) [3]: 3.8

Compound: Sm1; MLH1 pTyr 293 peptide THPFL-pY-LSLEI N-SH2: T42A; MLH1 peptide: L292P
enrichment (fselected / finput) [4]: 8.6
